Assay [1] deals with Soluble C5b-9 (CompTech, A127) (UniProt P01031). The assay can be described thus: BLI (Octet), antibody amine-coupled to AR2G tips, soluble C5b-9 at 30 ug/ml, 300 s association (Example 8). (In general: BLI is a label-free optical method that tracks binding on a fibre tip over time.)
Assay [2] shares this target. Described as above. This is another data set of the same source.
In assay [3] the target is insoluble C5b-9 complex deposited on IgM-coated ELISA plates after complement activation of normal human serum (human) (UniProt P01031). The assay is described as follows: ELISA on C5b-9 deposited on IgM-coated plates from 2% normal human serum, anti-mouse HRP, Abs 450nm (Example 7). For orientation: In an ELISA, binding on a coated surface is turned into a signal by an enzyme label.

For assay [4], the target named is T1, human complement Component 5 (C5) (human, UniProt P01031 19-1676, limits assumed). The assay is described as follows: cell-based or functional assay.
Assay [5] deals with T1, human complement Component 5 (C5). The assay can be described thus: cell-based or functional assay. The source holds these as a separate data set.
Assay [6] has the same target. The assay is described as follows: cell-based or functional assay. The source holds these as a separate data set.
For assay [7] the target is unchanged. The assay can be described thus: cell-based or functional assay. The source holds these as a separate data set.
Assay [8] shares this target. The assay can be described thus: cell-based or functional assay. The source holds these as a separate data set.
Assay [9] has the same target. The assay can be described thus: cell-based or functional assay. This is another data set of the same source.

By EC50 (read off the curve) is commonly meant the concentration that produces a half-maximal response.

Substitutions are numbered along the chain they refer to. Where two headings read alike, the source gives them in different places.

T1 sequence (P01031 19-1676 limits assumed): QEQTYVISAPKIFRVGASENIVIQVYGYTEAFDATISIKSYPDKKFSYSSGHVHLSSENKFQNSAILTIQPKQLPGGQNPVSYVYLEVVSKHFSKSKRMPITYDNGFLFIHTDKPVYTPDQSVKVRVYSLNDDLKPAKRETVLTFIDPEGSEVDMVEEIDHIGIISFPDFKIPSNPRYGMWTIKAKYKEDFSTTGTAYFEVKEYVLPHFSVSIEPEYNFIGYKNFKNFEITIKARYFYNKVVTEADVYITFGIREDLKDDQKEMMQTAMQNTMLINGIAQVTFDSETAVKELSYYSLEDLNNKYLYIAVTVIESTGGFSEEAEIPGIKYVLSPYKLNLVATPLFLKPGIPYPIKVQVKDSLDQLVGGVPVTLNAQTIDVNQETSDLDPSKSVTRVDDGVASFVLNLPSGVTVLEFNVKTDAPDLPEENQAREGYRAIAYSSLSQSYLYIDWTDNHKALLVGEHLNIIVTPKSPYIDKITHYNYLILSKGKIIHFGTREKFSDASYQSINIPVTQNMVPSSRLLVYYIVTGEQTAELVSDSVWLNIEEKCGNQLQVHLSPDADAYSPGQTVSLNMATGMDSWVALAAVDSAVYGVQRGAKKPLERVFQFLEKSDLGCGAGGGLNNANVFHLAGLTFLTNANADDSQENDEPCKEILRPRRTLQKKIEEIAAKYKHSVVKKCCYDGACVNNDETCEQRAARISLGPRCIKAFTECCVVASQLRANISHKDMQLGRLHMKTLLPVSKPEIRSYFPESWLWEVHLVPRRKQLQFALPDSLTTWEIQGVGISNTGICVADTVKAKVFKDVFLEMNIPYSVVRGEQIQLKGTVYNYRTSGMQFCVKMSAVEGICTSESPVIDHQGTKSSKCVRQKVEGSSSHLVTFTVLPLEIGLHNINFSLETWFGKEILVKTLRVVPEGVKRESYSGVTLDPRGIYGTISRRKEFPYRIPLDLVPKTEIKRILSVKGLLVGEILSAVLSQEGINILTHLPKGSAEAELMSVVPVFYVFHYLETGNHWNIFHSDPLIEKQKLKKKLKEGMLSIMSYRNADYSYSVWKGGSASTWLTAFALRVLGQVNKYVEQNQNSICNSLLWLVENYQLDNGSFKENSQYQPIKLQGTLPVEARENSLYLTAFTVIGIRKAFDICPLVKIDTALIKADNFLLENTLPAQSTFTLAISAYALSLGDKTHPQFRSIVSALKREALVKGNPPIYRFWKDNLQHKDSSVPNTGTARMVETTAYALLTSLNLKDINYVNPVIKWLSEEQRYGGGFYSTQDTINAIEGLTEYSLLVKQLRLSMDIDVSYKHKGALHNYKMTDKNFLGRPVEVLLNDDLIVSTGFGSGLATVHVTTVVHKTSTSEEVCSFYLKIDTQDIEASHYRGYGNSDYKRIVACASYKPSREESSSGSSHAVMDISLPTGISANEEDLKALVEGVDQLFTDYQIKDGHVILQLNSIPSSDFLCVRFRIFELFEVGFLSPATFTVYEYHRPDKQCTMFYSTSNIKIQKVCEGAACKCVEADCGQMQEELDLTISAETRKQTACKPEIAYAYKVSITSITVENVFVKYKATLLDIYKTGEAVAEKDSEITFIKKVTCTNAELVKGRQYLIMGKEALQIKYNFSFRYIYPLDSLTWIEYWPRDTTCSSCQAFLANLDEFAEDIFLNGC

As for “anti-C5b-9 mouse monoclonal antibody (Quidel A239)”, the Displacement @ 300s. in assay [1] came out at 0.86 nm; in assay [2] it was 0.67 nm. The molecule further had an EC50 (read off the curve) in assay [3] of 0.04 mg/L.

B1: H1L3-IgG (antibody, V domains shown)
VH: QVQLVQSGAEVKKPGASVKVSCKASGYTFTDEYMNWVRQAPGQSLEWMGYINPNNGGADYNQKFQGRVTMTVDQSISTAYMELSRLRSDDTAVYFCARLGYSNPYFDFWGQGTLVTVSS
VL: DIVLTQSPSFLSASVGDRVTITCQASQDVNTAVAWYLQKPGKSPKLLIYWASTRHTGVPARFTGSGSGTDYTLTISSLQPEDFAVYFCQQHHVSPWTFGGGTKVEIK
In the case of B1, the “IC50 (read off the curve), % Inhibition” value in assay [4] was roughly 3 mg/L. The “IC50 (read off the curve), OD (450nM)” value in [5] was roughly 0.5 mg/L.

B2: H5L1-Fab (Fab, V domains shown)
VH: B1 VH with V5K, Q43K
VL: DIVLTQSPDSLAVSLGERATINCKASQDVNTAVAWYQQKPDQSPKLLIYWASTRHTGVPARFTGSGSGTDYTLTISSLQAEDVAVYFCQQHHVSPWTFGGGTKVEIK
B2: the “IC50 (read off the curve), % Inhibition” value in [6] was roughly 2 mg/L.

B3: H3L1-Fab (Fab, V domains shown)
VH: B1 VH with Q62P, K63S, F64L, Q65K, G66S, M70I, T71S
VL: B2 VL
Regarding B3, the “IC50 (read off the curve), OD (450nM)” value in assay [7] is roughly 0.5 mg/L.

B4: H5L3-Fab (Fab, V domains shown)
VH: B1 VH with V5K, Q43K
VL: B1 VL
As to B4, in assay [6], the “IC50 (read off the curve), % Inhibition” value was roughly 2 mg/L. Also, the “IC50 (read off the curve), OD (450nM)” value in assay [8] is roughly 0.4 mg/L.

B5: H5L2-Fab (Fab, V domains shown)
VH: B1 VH with V5K, Q43K
VL: B2 VL with D9A, S10T, A12S, V13L, L15P, I21L, N22S, K24R, A80P, V83F
As for B5, the “IC50 (read off the curve), % Inhibition” value in assay [6] is roughly 2 mg/L. Further, the “IC50 (read off the curve), OD (450nM)” value in assay [7] is roughly 0.4 mg/L.

B6: H1L4-Fab (Fab, V domains shown)
VH: B1 VH
VL: B1 VL with S9A, F10T, A13L, V15P, D17E, V19A, I21L, T22S, Q24R, L37Q
For B6, the “IC50 (read off the curve), % Inhibition” value in assay [6] was roughly 2 mg/L. Also, the “IC50 (read off the curve), OD (450nM)” value in assay [8] is roughly 0.4 mg/L.

B7: H1L1-IgG (antibody, V domains shown)
VH: B1 VH
VL: B2 VL
For the molecule B7, the “IC50 (read off the curve), % Inhibition” value in assay [4] was roughly 3 mg/L.

B8: H5L4-Fab (Fab, V domains shown)
VH: B1 VH with V5K, Q43K
VL: B1 VL with S9A, F10T, A13L, V15P, D17E, V19A, I21L, T22S, Q24R, L37Q
In the case of B8, the “IC50 (read off the curve), % Inhibition” value in assay [6] is roughly 2 mg/L. The “IC50 (read off the curve), OD (450nM)” value in assay [8] was roughly 0.4 mg/L.

B9: H3L4-IgG (antibody, V domains shown)
VH: B1 VH with Q62P, K63S, F64L, Q65K, G66S, M70I, T71S
VL: B1 VL with S9A, F10T, A13L, V15P, D17E, V19A, I21L, T22S, Q24R, L37Q
As for B9, the “IC50 (read off the curve), OD (450nM)” value in assay [5] is roughly 0.8 mg/L.

B10: H3L2-IgG (antibody, V domains shown)
VH: B1 VH with Q62P, K63S, F64L, Q65K, G66S, M70I, T71S
VL: B2 VL with D9A, S10T, A12S, V13L, L15P, I21L, N22S, K24R, A80P, V83F
As to B10, in assay [9], the “IC50 (read off the curve), OD (450nM)” value is roughly 0.8 mg/L.

B11: H2L1-Fab (Fab, V domains shown)
VH: B1 VH with Q1E, Q43K, M48V, M70I, I76A, R85S, D89E
VL: B2 VL
For the molecule B11, the “IC50 (read off the curve), % Inhibition” value in [6] was roughly 2 mg/L. Besides, the “IC50 (read off the curve), OD (450nM)” value in [7] is roughly 0.5 mg/L.

B12: H5L1-IgG (antibody, V domains shown)
VH: B1 VH with V5K, Q43K
VL: B2 VL
With B12, the “IC50 (read off the curve), % Inhibition” value in [4] is roughly 2 mg/L. In addition, the “IC50 (read off the curve), OD (450nM)” value in assay [9] is roughly 0.5 mg/L.

B13: H5L3-IgG (antibody, V domains shown)
VH: B1 VH with V5K, Q43K
VL: B1 VL
As for B13, the “IC50 (read off the curve), % Inhibition” value in [4] is roughly 3 mg/L.

B14: H3L3-IgG (antibody, V domains shown)
VH: B1 VH with Q62P, K63S, F64L, Q65K, G66S, M70I, T71S
VL: B1 VL
In the case of B14, the “IC50 (read off the curve), OD (450nM)” value in assay [5] was roughly 0.8 mg/L.

B15: H1L2-IgG (antibody, V domains shown)
VH: B1 VH
VL: B2 VL with D9A, S10T, A12S, V13L, L15P, I21L, N22S, K24R, A80P, V83F
As for B15, in assay [4], the “IC50 (read off the curve), % Inhibition” value was roughly 3 mg/L.

B16: H1L1-Fab (Fab, V domains shown)
VH: B1 VH
VL: B2 VL
With B16, the “IC50 (read off the curve), % Inhibition” value in assay [6] is roughly 2 mg/L. Further, the “IC50 (read off the curve), OD (450nM)” value in [7] is roughly 0.3 mg/L.

B17: H3L2-Fab (Fab, V domains shown)
VH: B1 VH with Q62P, K63S, F64L, Q65K, G66S, M70I, T71S
VL: B2 VL with D9A, S10T, A12S, V13L, L15P, I21L, N22S, K24R, A80P, V83F
In the case of B17, the “IC50 (read off the curve), OD (450nM)” value in assay [7] was roughly 0.5 mg/L.

B18: H1L4-IgG (antibody, V domains shown)
VH: B1 VH
VL: B1 VL with S9A, F10T, A13L, V15P, D17E, V19A, I21L, T22S, Q24R, L37Q
B18: the “IC50 (read off the curve), % Inhibition” value in assay [4] is roughly 3 mg/L. Besides, the “IC50 (read off the curve), OD (450nM)” value in assay [5] is roughly 0.5 mg/L.

B19: H1L2-Fab (Fab, V domains shown)
VH: B1 VH
VL: B2 VL with D9A, S10T, A12S, V13L, L15P, I21L, N22S, K24R, A80P, V83F
As for B19, the “IC50 (read off the curve), % Inhibition” value in assay [6] is roughly 2 mg/L. Moreover, in assay [7], the “IC50 (read off the curve), OD (450nM)” value is roughly 0.4 mg/L.

B20: H2L2-Fab (Fab, V domains shown)
VH: B1 VH with Q1E, Q43K, M48V, M70I, I76A, R85S, D89E
VL: B2 VL with D9A, S10T, A12S, V13L, L15P, I21L, N22S, K24R, A80P, V83F
Consider B20, for which the “IC50 (read off the curve), OD (450nM)” value in [7] was roughly 0.5 mg/L.

B21: H1L3-Fab (Fab, V domains shown)
VH: B1 VH
VL: B1 VL
Regarding B21, in assay [6], the “IC50 (read off the curve), % Inhibition” value is roughly 2 mg/L.

B22: H5L2-IgG (antibody, V domains shown)
VH: B1 VH with V5K, Q43K
VL: B2 VL with D9A, S10T, A12S, V13L, L15P, I21L, N22S, K24R, A80P, V83F
With B22, the “IC50 (read off the curve), % Inhibition” value in [4] was roughly 3 mg/L. Further, in assay [9], the “IC50 (read off the curve), OD (450nM)” value is roughly 0.7 mg/L.

B23: H5L4-IgG (antibody, V domains shown)
VH: B1 VH with V5K, Q43K
VL: B1 VL with S9A, F10T, A13L, V15P, D17E, V19A, I21L, T22S, Q24R, L37Q
Take B23: in [4], the “IC50 (read off the curve), % Inhibition” value is roughly 3 mg/L. Also, the “IC50 (read off the curve), OD (450nM)” value in assay [5] is roughly 0.5 mg/L.

B24: H2L2-IgG (antibody, V domains shown)
VH: B1 VH with Q1E, Q43K, M48V, M70I, I76A, R85S, D89E
VL: B2 VL with D9A, S10T, A12S, V13L, L15P, I21L, N22S, K24R, A80P, V83F
B24: the “IC50 (read off the curve), OD (450nM)” value in assay [9] is roughly 0.7 mg/L.

B25: H2L1-IgG (antibody, V domains shown)
VH: B1 VH with Q1E, Q43K, M48V, M70I, I76A, R85S, D89E
VL: B2 VL
Turning to B25, in [4], the “IC50 (read off the curve), % Inhibition” value is roughly 3 mg/L.

B26: H3L3-Fab (Fab, V domains shown)
VH: B1 VH with Q62P, K63S, F64L, Q65K, G66S, M70I, T71S
VL: B1 VL
Consider B26, for which the “IC50 (read off the curve), OD (450nM)” value in [8] is roughly 0.5 mg/L.

B27: H3L1-IgG (antibody, V domains shown)
VH: B1 VH with Q62P, K63S, F64L, Q65K, G66S, M70I, T71S
VL: B2 VL
Regarding B27, the “IC50 (read off the curve), OD (450nM)” value in assay [9] is roughly 0.7 mg/L.

For the origin of these results see patent publication US20250304667A1 (ALLERGAN, published 2025).
